Measurements as given in article PMC2528576.

Biological target: respiratory complex IV (S. cerevisiae (endogenous in yeast mitochondria)) (UniProt P00410)
Experiment: co-IP

Sequence of UniProt P00410 (P00410 whole entry, looked up, one chain of several): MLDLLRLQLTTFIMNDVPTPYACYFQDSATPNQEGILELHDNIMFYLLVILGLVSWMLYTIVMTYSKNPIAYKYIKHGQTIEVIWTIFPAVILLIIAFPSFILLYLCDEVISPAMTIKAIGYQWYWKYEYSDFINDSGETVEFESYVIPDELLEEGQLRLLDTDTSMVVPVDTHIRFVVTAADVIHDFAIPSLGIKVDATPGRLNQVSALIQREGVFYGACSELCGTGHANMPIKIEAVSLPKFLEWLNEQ

AAC2, the major ADP/ATP carrier (endogenous) (from UniProt P18239 1-318) (natural protein)
percent of the total AAC2 content associated with the respiratory supercomplex: 0.5 to 1%
